Like-named read-outs stand apart in the source and are kept apart here.
How the values were obtained:
[1] = tested on: COS-7 S10 cells; experiment: Boyden chamber cell migration, S100P-inducible COS-7; type: cell-based, monkey; settings: 24 h
Text: Cell migration rate (%) = M/G × 100.

[2] = tested on: α,β-tubulin; experiment: SPR binding of S100P to immobilised α,β-tubulin; design: species or system human; settings: for Kd: mean ± SE, 3 experiments
Text: The coding sequences for full length (human) α-tubulin and for N-terminal and C-terminal halves of α or β-tubulin were generated using PCR with specific primers shown in Supplementary Table S1 and sub-cloned into pET16(b) for expressing and purifying His-tagged full-length α-tubulin and His-tagged tubulin fragments in E. coli, as described previously. β-tubulin was purchased from Abcam.
For SPR binding assays, α,β-tubulin proteins described earlier were immobilised on a carboxymethylated dextran surface of a CM5 chip using BS^3 for use in Biocore X100. Recombinant S100P produced as described previously was used as a ligand in different concentrations at 20, 50, 100, 200, 1000, 2000 nM for calculation of the equilibrium dissociation constant (Kd) from the association/dissociation rate constants and from the extent of binding near equilibrium (Supplementary Table S2), as described previously. To detect the effects of tubulin peptides on the interaction of tubulin, different concentrations of tagged and untagged peptides were mixed with 1 µM S100P first and the mixtures were then applied to the tubulin-coated chip. The relative changes in kinetics and binding extents with different peptides were calculated using software provided by the manufacturer.

- calcium concentration above which complex starts to form ([2]; 0.15 M NaCl, 2 µM S100P): above 30 µM
- calcium concentration saturating the reaction ([2]; 0.15 M NaCl, 2 µM S100P): 0.2 mM
- Kd ([2]; Kd from association/dissociation rate constants, 150mM NaCl, 0.5mM CaCl2, single cycle, S100P 20-2000 nM, CM5 chip, read-out: Kinetic dissociation constant Kd): 120 ± 12 nM
- Kd ([2]; Kd from rate constants, 150mM NaCl, 0.5mM CaCl2, multiple cycles, read-out: Kinetic dissociation constant Kd): 210 ± 90 nM
- Kinetic dissociation constant Kd ([2]; Kd from rate constants, 150M NaCl (so in the source), EDTA 5mM, multiple cycles, 1L = incalculably large): 1 L
- Kd ([2]; Kd from rate constants, 300M NaCl (so in the source), 0.5mM CaCl2, multiple cycles, read-out: Kinetic dissociation constant Kd): 890 ± 90 nM
- Kd ([2]; Kd from rate constants, 500M NaCl (so in the source), 0.5mM CaCl2, multiple cycles, read-out: Kinetic dissociation constant Kd): 8300 ± 700 nM
- calcium concentration at saturation of binding ([2]; SPR, Figure 2F-H): 200 µM
- Equilibrium dissociation constant Kd ([2]; at or near equilibrium, 150M NaCl (so in the source), EDTA 5mM, multiple cycles, 1L = incalculably large): 1 L
- Kd ([2]; at or near equilibrium, 300M NaCl (so in the source), 0.5mM CaCl2, multiple cycles, read-out: Equilibrium dissociation constant Kd): 1100 ± 160 nM
B1: S100P: recombinant or doxycycline-induced overexpressed S100P protein (protein)
chain: MTELETAMGMIIDVFSRYSGSEGSTQTLTKGELKVLMEKELPGFLQSGKDKDAVDKLLKDLDANGDAQVDFSEFIVFVAAITSACHKYFEKAGLK
- S100P-enhanced cell migration ([1]; COS-7 S10, doxycycline 1 µg/ml): 2–3 folds
- fold increase in relative cell migration rate on S100P induction ([1]; three inducible COS-7 lines S7, S10, S23, 1 µg/ml doxycycline): 2.5 to 2.9 fold
